In data set [1] the test system is CNC-bZip domain-deficient mouse Nrf1 and luciferase fusion protein (mNrf1ΔCNC-bZip-Luc). As to the kind of experiment: Luciferase activity in Hepa1 cell line stably expressing CNC-bZip domain-deficient mouse Nrf1-luciferase fusion protein. The data set is classed as cell-based. Particulars: mNrf1ΔCNC-bZip-Luc stable Hepa1 cell lines, 10 μM MG-132, 4 hours, vs DMSO. The method, then: (§1) Cloning of mouse Nrf1 cDNA was performed using a method known in the art (Zhang et al., Biochem. J. 399: 373-385. (2006)). An expression vector of full-length mouse Nrf1 and luciferase fusion protein (mNrf1-Luc) was prepared by ligating the sequence, which was amplified by the following primers: 5′-TAATACGACTCACTATAGGG-3′ (SEQ ID NO: 21) and 5′-CTTTATGTTTTTGGCGTCTTCCTTCCTCCGGTCCTTTG-3′ (SEQ ID NO: 22) using mouse Nrf1 cDNA sequence as a template, and the sequence, which was amplified by the following primers: 5′-CAAAGGACCGGAGGAAGGAAGACGCCAAAAACATAAAG-3′ (SEQ ID NO: 23) and 5′-GACTCTAGAATTACACGGCG-3′ (SEQ ID NO: 24) using pGL3-basic vector (Promega) as a template; and cloning the resulting sequence at a KpnI/XbaI site of pcDNA3.1/V5His B plasmid (Invitrogen). […]
(§2) Cells of each cell line were seeded at a density of 5×10^4 cells per well in a 24-well plate, cultured overnight and treated with a solvent control, DMSO or 10 μM MG-132 (Peptide Institute) for 4 hours. Thereafter, the firefly luciferase activity was measured using dual luciferase kit (Promega) and a luminometer (Berthold).

The test system of data set [2] is full-length mouse Nrf1 and luciferase fusion protein (mNrf1-Luc). Briefly: Luciferase activity in Hepa1 cell line stably expressing mouse Nrf1-luciferase fusion protein (Nrf1 stabilization assay). The data set is classed as cell-based. Particulars: mNrf1-Luc stable Hepa1 cell lines, 10 μM MG-132, 4 hours, vs DMSO. The method, then:
as §1, §2

In data set [3] the target is T1, Nrf1 CT (G341-K741)/MafG 1-123 heterodimer (Mus musculus, UniProt Q61985;O54790 Q61985:341-741,O54790:1-123). Briefly: EMSA; room temperature 20 min; probe boundaries in FIG. 6E may differ from the reporter insert. The note with it: tags: 6xHis on each; E. coli; label: 5' biotin (EMSA). The procedure:
(§3) (A to C) Hepa1 cells were cotransfected with luciferase reporter constructs containing the AREs from the Lipin1 promoter (A), Lipin1 intron (B) or PGC-1β intron (C) together with or without the Nrf1 expression vector. The average values±S.D are shown, n=3. The vertical axis indicates relative luciferase units (RLU). The firefly luciferase activity in the absence of effector plasmids is set to 1. (D) The EMSA analysis was performed with biotin-labeled probes containing the AREs from the Nqo1 promoter, Lipin1 promoter, Lipin1 intron and PGC-1β intron regions. Recombinant MafG and/or Nrf1 or Nrf2 proteins were incubated with the probes, and the protein-DNA complexes and free probes were resolved by electrophoresis. (E) The sequences of the wild-type (W) and mutant (M) oligonucleotides are shown. The mutation sites of the sequences are underlined. (F) Nrf2 and MafG proteins were incubated in combination in the presence or absence of a 200-fold molar excess of unlabeled competitor DNA. The open arrowheads indicate Nrf1/MafG heterodimer complexes, the solid arrowheads indicate Nrf2-MafG heterodimer complexes and the arrows indicate MafG homodimer complexes.
(§4) EMSA was performed in accordance with a method known in the art. […]

Data set [4] deals with MafG 1-123 homodimer (UniProt O54790 O54790:1-123). As to the kind of experiment: EMSA; MafG homodimer; MARE-like site. The note with it: tags: 6xHis; E. coli; chain copies: 2 (stated); label: 5' biotin (EMSA). The procedure: as §3, §4
Chain of MafG 1-123 homodimer (O54790 1-123, one chain of several): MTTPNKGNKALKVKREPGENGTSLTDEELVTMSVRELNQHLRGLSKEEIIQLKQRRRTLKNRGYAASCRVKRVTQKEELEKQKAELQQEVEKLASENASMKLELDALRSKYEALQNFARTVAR
Background: Mobility shift assays separate free from complexed probe on a gel.

For data set [5], the target named is T1, Nrf1 CT (G341-K741)/MafG 1-123 …. Briefly: EMSA; slightly weaker than for Nqo1 ARE; room temperature 20 min; probe boundaries in FIG. 6E may differ from the reporter insert. Particulars: tags: 6xHis on each; E. coli; label: 5' biotin (EMSA). The method, then:
as §3, §4

Where a SMILES comes first, the peptide text is derived from it. The star is where a group is joined. Cbz = O=C(OCc1ccccc1)*

T1 sequence (Q61985 341-741, chain 1 of 2): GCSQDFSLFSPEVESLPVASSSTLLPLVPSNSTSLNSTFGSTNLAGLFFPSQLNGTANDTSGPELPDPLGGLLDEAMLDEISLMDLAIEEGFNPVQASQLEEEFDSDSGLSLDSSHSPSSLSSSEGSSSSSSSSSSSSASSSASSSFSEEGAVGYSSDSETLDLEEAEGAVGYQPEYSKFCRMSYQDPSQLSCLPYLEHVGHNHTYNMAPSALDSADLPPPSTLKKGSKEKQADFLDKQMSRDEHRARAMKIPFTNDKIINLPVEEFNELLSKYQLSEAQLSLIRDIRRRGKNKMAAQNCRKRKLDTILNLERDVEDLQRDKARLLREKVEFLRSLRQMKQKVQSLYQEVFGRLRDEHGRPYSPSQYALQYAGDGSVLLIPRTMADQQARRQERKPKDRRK
T1 sequence (O54790 1-123, chain 2 of 2): as the sequence (O54790 1-123, one chain of several) above

For `CC(C)C[C@@H](C=O)NC(=O)[C@H](CC(C)C)NC(=O)[C@H](CC(C)C)NC(=O)OCc1ccccc1` [MG-132] (Cbz-Leu-Leu-Leu-aldehyde), the “luciferase activity compared to solvent” value in data set [1] and in data set [2] was “drastic increase of luciferase activity” in each case.

B1: Lipin1 intron ARE (dsDNA)
DNA 1: CACACCCTGCCCAGAGGCACACTTGCTGAGTCAGCACCCCGG
DNA 2: CCGGGGTGCTGACTCAGCAAGTGTGCCTCTGGGCAGGGTGTG
Turning to B1, the binding result in data set [3] and in data set [4] was “binds” in each case.

B2: Lipin1 promoter ARE (dsDNA)
DNA 1: ACGCTCCTGCCGCTGAGCTGTGACTCAGCCAGAGAACTGAG
DNA 2: CTCAGTTCTCTGGCTGAGTCACAGCTCAGCGGCAGGAGCGT
As to B2, the binding result in data set [5] is reported as “binds”.

B3: PGC-1beta intron ARE (dsDNA)
DNA 1: TTGATAGTGAGGGGAACATGCTGACTCAGCAGCTCCGAATAA
DNA 2: TTATTCGGAGCTGCTGAGTCAGCATGTTCCCCTCACTATCAA
Turning to B3, the binding result in data set [3] and in data set [4] was “binds” in each case.
